The nature of data set [1]: In vivo pharmacokinetic (PK) studies in rats. Details: species or system Sprague-Dawley rats. The note with it: rat, male Sprague-Dawley rats, single SC dose 1.0 mg/kg, serum ELISA; for AUC(0-inf): read-out: Rat PK AUC Total; for level at time molar at 24 h: read-out: Rat PK C24. The gist of the method:
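Male Sprague-Dawley rats (n=3) given a single 1 mg/kg IV or SC dose of relaxin constructs in 20 mM histidine, 750 mM NaCl, pH 6.0; jugular serum sampled to 72 h. Serum relaxin by ELISA; Cmax, AUCinf, C24 and half-life from non-compartmental analysis of individual profiles.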
A general note: An ELISA detects its analyte on a solid surface through an enzyme-linked reagent.

A short description of another data set: Solubility observations. The settings on record: data not shown.
The subject of data set [2] is renal tubular epithelial cells. In words: Rat toxicity studies, kidney histopathology. The settings on record: rats. It counts as in vivo, Sprague Dawley rats. As for the experimental part: FIGS. 7A-7D. PEG-related renal cortical tubule epithelial vacuolation in female Sprague Dawley rats. Kidney from rats treated subcutaneously (SQ) once a day with vehicle or relaxin analogs. […] FIG. 7A: Vehicle (150 mM Arg in 10 mM citrate buffer pH 5.5) SQ for 10 days. FIG. 7B: AQ1-PEG36-Glu-C13-COOH (1.5 kD PEG) SQ at 40 mg/kg/day for 7 days. FIG. 7C: AQ1-20-kDa-PEG (20 kD PEG) SQ at 15 mg/kg/day for 10 days. FIG. 7D: AQ1-GGGGS-Glu^γ (SEQ ID NO: 139)-C14-COOH SQ at 40 mg/kg for 7 days. Magnification 40×, H&E.
AQ1-20 kDa-PEG was given to rats by subcutaneous administration at doses of 1, 5, and 15 mg/kg/day for 10 days. Following the final dose animals were euthanized, dissected, and kidney histopathology was performed. […] In contrast, vacuoles were not observed in renal tubular epithelial cells of rats dosed with Vehicle (150 mM Arg in 10 mM citrate buffer pH 5.5) subcutaneously for 10 days (FIG. 7A).
AQ1-PEG36-Glu-C13-COOH was given to rats by subcutaneous administration at doses of 10 and 40 mg/kg/day for 7 days. Following the final dose animals were euthanized, dissected, and kidney histopathology was performed.
AQ1-GGGGS-Glu^γ (SEQ ID NO: 139)-C14-COOH was given to rats by subcutaneous administration at doses of 5, 20, and 40 mg/kg/day for 7 days. Following the final dose animals were euthanized, dissected, and kidney histopathology was performed.

The conditions of data set [3]: in vivo; cited from earlier work.

Entries after “also recorded” stand apart in the source; their conditions may differ.

For `CC[C@H](C)[C@@H]1NC(=O)[C@H](C)NC(=O)[C@H]([C@@H](C)CC)NC(=O)[C@H](CCC(N)=O)NC(=O)[C@H](C)NC(=O)[C@H](CCCNC(=N)N)NC(=O)[C@H](C(C)C)NC(=O)[C@H](CC(C)C)NC(=O)[C@H](CCC(=O)O)NC(=O)[C@H](CCCNC(=N)N)NC(=O)CNC(=O)[C@@H](NC(=O)[C@H](CC(C)C)NC(=O)[C@H](CCCCN)NC(=O)[C@@H](NC(=O)[C@@H](NC(=O)[C@H](CCC(=O)O)NC(=O)[C@H](CCC(=O)O)NC(=O)[C@H](CCSC)NC(=O)[C@H](Cc2c[nH]c3ccccc23)NC(=O)[C@H](CO)NC(=O)[C@H](C)N)C(C)C)[C@@H](C)CC)CSSC[C@@H]2NC(=O)[C@@H](NC(=O)[C@H](CCCCN)NC(=O)[C@H](CC(N)=O)NC(=O)[C@H](C)NC(=O)[C@H](CC(C)C)NC(=O)[C@H](C)NC(=O)[C@H](CO)NC(=O)[C@H](Cc3ccc(O)cc3)NC(=O)[C@H](CC(C)C)NC(=O)[C@@H](N)Cc3ccc(/C(C)=N/OCCNC(=O)CNC(=O)CNC(=O)CNC(=O)CNC(=O)[C@H](CO)NC(=O)CC[C@H](NC(=O)CCCCCCCCCCCCCC(=O)O)C(=O)O)cc3)CSSC[C@H](NC(=O)CNC(=O)[C@H](C(C)C)NC(=O)[C@H](Cc3c[nH]cn3)NC2=O)C(=O)N[C@@H]([C@@H](C)O)C(=O)N[C@@H](CCCCN)C(=O)N[C@@H](CCCNC(=N)N)C(=O)N[C@@H](CO)C(=O)N[C@@H](CC(C)C)C(=O)N[C@@H](C)C(=O)N[C@@H](CCCNC(=N)N)C(=O)N[C@@H](Cc2ccccc2)C(=O)N[C@H](C(=O)O)CSSC[C@@H](C(=O)NCC(=O)N[C@@H](CCSC)C(=O)N[C@@H](CO)C(=O)N[C@H](C(=O)N[C@@H](Cc2c[nH]c3ccccc23)C(=O)N[C@@H](CO)C(=O)O)[C@@H](C)O)NC1=O` [AQ1-GGGGS-Glu^γ-C14-COOH], in data set [1], the AUC(0-inf) turned out to be 2.31 µM·h and the level at time molar at 24 h came out at 17 nM. In the data set “Solubility observations”, the solubility profile result is “favorable solubility profile”. Also, the “vacuoles in renal tubular epithelial cells” value in data set [2] (subcutaneous 5, 20 and 40 mg/kg/day for 7 days, listed as AQ1-GGGGS-Glu^γ (SEQ ID NO: 139)-C14-COOH) is given as “Vacuoles are not observed; also recorded: no evidence of test-article related vacuoles”.

On to Serelaxin, for which the first-phase pharmacokinetic half-life in data set [3] was 5 to 15 min.

As for `CC[C@H](C)[C@@H]1NC(=O)[C@H](C)NC(=O)[C@H]([C@@H](C)CC)NC(=O)[C@H](CCC(N)=O)NC(=O)[C@H](C)NC(=O)[C@H](CCCNC(=N)N)NC(=O)[C@H](C(C)C)NC(=O)[C@H](CC(C)C)NC(=O)[C@H](CCC(=O)O)NC(=O)[C@H](CCCNC(=N)N)NC(=O)CNC(=O)[C@@H](NC(=O)[C@H](CC(C)C)NC(=O)[C@H](CCCCN)NC(=O)[C@@H](NC(=O)[C@@H](NC(=O)[C@H](CCC(=O)O)NC(=O)[C@H](CCC(=O)O)NC(=O)[C@H](CCSC)NC(=O)[C@H](Cc2c[nH]c3ccccc23)NC(=O)[C@H](CO)NC(=O)[C@H](C)N)C(C)C)[C@@H](C)CC)CSSC[C@@H]2NC(=O)[C@@H](NC(=O)[C@H](CCCCN)NC(=O)[C@H](CC(N)=O)NC(=O)[C@H](C)NC(=O)[C@H](CC(C)C)NC(=O)[C@H](C)NC(=O)[C@H](CO)NC(=O)[C@H](Cc3ccc(O)cc3)NC(=O)[C@H](CC(C)C)NC(=O)[C@@H](N)Cc3ccc(/C(C)=N/OCCNC(=O)CCOCCOCCOCCOCCOCCOCCOCCOCCOCCOCCOCCOCCOCCOCCOCCOCCOCCOCCOCCOCCOCCOCCOCCOCCOCCOCCOCCOCCOCCOCCOCCOCCOCCOCCOCCOCCNC(=O)CC[C@H](NC(=O)CCCCCCCCCCCCC(=O)O)C(=O)O)cc3)CSSC[C@H](NC(=O)CNC(=O)[C@H](C(C)C)NC(=O)[C@H](Cc3c[nH]cn3)NC2=O)C(=O)N[C@@H]([C@@H](C)O)C(=O)N[C@@H](CCCCN)C(=O)N[C@@H](CCCNC(=N)N)C(=O)N[C@@H](CO)C(=O)N[C@@H](CC(C)C)C(=O)N[C@@H](C)C(=O)N[C@@H](CCCNC(=N)N)C(=O)N[C@@H](Cc2ccccc2)C(=O)N[C@H](C(=O)O)CSSC[C@@H](C(=O)NCC(=O)N[C@@H](CCSC)C(=O)N[C@@H](CO)C(=O)N[C@H](C(=O)N[C@@H](Cc2c[nH]c3ccccc23)C(=O)N[C@@H](CO)C(=O)O)[C@@H](C)O)NC1=O` [AQ1-PEG36-Glu-C13-COOH], in data set [1], the AUC(0-inf) stood at 1 µM·h and the level at time molar at 24 h was 9.7 nM. Besides, in data set [2] (subcutaneous 10 and 40 mg/kg/day for 7 days), the “vacuoles in renal tubular epithelial cells” value is listed as “marked cortical tubular vacuolation; also recorded: Vacuoles were observed”.
